In assay [1] the target is T1, HLA-A2.1 on T2 cells (human).
T1 construct: Peptide-receptive HLA-A2.1 on T2 cells; also called HLA-A2.1 MHC class I molecules
The experiment in a line: T2 peptide binding assay with beta2-microglobulin, anti-HLA-A2.1 staining, flow cytometry; index against T2 + beta2-microglobulin only (1.0). A general note: A flow cytometer gives signals particle by particle.
Experimental: T2 cells were washed and resuspended in serum-free AIM-V™ (Gibco-Life Technologies, Rockville, Md.) at a final concentration of 1 ×10^6 cells/ml and transferred into a 24-well tissue culture plate. […] After incubation, cells were washed once with PBS containing 3% FCS, and stained with mouse anti-HLA-A2.1 monoclonal antibody for 15 minutes at 4° C. After washing, the cells were incubated with goat anti-mouse IgG (F(ab')_2)-FITC for 15 minutes at 4° C. The cells were washed once, and fluorescence was measured on a FACSort™ flow cytometer (Becton Dickson, San Jose, Calif.). The fluorescence index was calculated as follows: (mean channel fluorescence of sample–mean channel fluorescence of unstained control cells)/mean channel fluorescence of unstained control cells.

Assay [2] concerns the target T1, HLA-A2.1 on T2 cells. The assay is described as follows: peptide binding to HLA-A2.1+ T2 cells, complex stability; Brefeldin A 4 hr (T2 alone 187).
Assay [3] has as its target T1, HLA-A2.1 on T2 cells. The assay is described as follows: peptide binding to HLA-A2.1+ T2 cells, complex stability; no Brefeldin A (T2 alone 215).
Assay [4] has as its target T1, HLA-A2.1 on T2 cells. The experiment in a line: peptide binding to HLA-A2.1+ T2 cells, complex stability; Brefeldin A 6 hr (T2 alone 157).
In assay [5] the target is T1, HLA-A2.1 on T2 cells. The assay is described as follows: peptide binding to HLA-A2.1+ T2 cells, complex stability; Brefeldin A 2 hr (T2 alone 200).
For assay [6], the target named is T1, HLA-A2.1 on T2 cells. The assay is described as follows: peptide binding to HLA-A2.1+ T2 cells, complex stability; Brefeldin A overnight (T2 alone 255).
The target in assay [7] is T1, HLA-A2.1 on T2 cells. The experiment in a line: peptide binding to HLA-A2.1+ T2 cells, complex stability; Brefeldin A 0 hr (T2 alone 226).

For the molecule ALLALCLCL (also called CD33269-277) [CD33 peptide ALLALCLCL (residues 269-277, SEQ ID NO: 8)], the “Fluorescence Index” value with HLA-A2.1 on T2 cells [1] was found to be 1.04.

B1: CD33 peptide TIQLNVTYV (residues 226-234, SEQ ID NO: 9) (peptide)
peptide: TIQLNVTYV
notes: Native CD33 nonamer, extracellular domain; also called CD33226-234
As for B1, the “binding score (HLA-A2.1 on T2 cells)” value in the assay with HLA-A2.1 on T2 cells [2] came to 180; with HLA-A2.1 on T2 cells [3], 175; with HLA-A2.1 on T2 cells [4], 159; in the assay with HLA-A2.1 on T2 cells [5] it was 173; with HLA-A2.1 on T2 cells [6], 404; in the assay with HLA-A2.1 on T2 cells [7] it was 218. Besides, the “Fluorescence Index” value with HLA-A2.1 on T2 cells [1] is 0.99.

Turning to YIISGDSPV (Modified CD33 peptide) [YIISGDSPV (SEQ ID NO: 3)], the “binding score (HLA-A2.1 on T2 cells)” value with HLA-A2.1 on T2 cells [2] was determined as 380; with HLA-A2.1 on T2 cells [3], 547; with HLA-A2.1 on T2 cells [4], 216; in the assay with HLA-A2.1 on T2 cells [5], 588; in the assay with HLA-A2.1 on T2 cells [6], 248; with HLA-A2.1 on T2 cells [7], 641.

Regarding YLISGDSPV (Modified CD33 peptide) [YLISGDSPV (SEQ ID NO: 7)], the “binding score (HLA-A2.1 on T2 cells)” value came to 745 in the assay with HLA-A2.1 on T2 cells [2]; 701 in the assay with HLA-A2.1 on T2 cells [3]; 594 with HLA-A2.1 on T2 cells [4]; 810 with HLA-A2.1 on T2 cells [5]; 479 with HLA-A2.1 on T2 cells [6]; 728 in the assay with HLA-A2.1 on T2 cells [7].

Regarding YIGSGDSPV (Modified CD33 peptide) [YIGSGDSPV (SEQ ID NO: 10)], the “binding score (HLA-A2.1 on T2 cells)” value with HLA-A2.1 on T2 cells [2] is 167; in the assay with HLA-A2.1 on T2 cells [3], 515; with HLA-A2.1 on T2 cells [4], 151; in the assay with HLA-A2.1 on T2 cells [7], 687.

Take YIISGDSWV (Modified CD33 peptide) [YIISGDSWV (SEQ ID NO: 14)]: the “binding score (HLA-A2.1 on T2 cells)” value with HLA-A2.1 on T2 cells [2] stood at 208; with HLA-A2.1 on T2 cells [3], 209; with HLA-A2.1 on T2 cells [4], 173; with HLA-A2.1 on T2 cells [5], 247; with HLA-A2.1 on T2 cells [6], 298; with HLA-A2.1 on T2 cells [7] it was 247.

With YIISGDSPL (Modified CD33 peptide) [YIISGDSPL (SEQ ID NO: 15)], the “binding score (HLA-A2.1 on T2 cells)” value with HLA-A2.1 on T2 cells [2] is 217; in the assay with HLA-A2.1 on T2 cells [3] it was 428; in the assay with HLA-A2.1 on T2 cells [4] it was 168; with HLA-A2.1 on T2 cells [5] it was 334; with HLA-A2.1 on T2 cells [6] it was 157; in the assay with HLA-A2.1 on T2 cells [7] it was 426.

Regarding YIISGDLPV (Modified CD33 peptide) [YIISGDLPV (SEQ ID NO: 13)], the “binding score (HLA-A2.1 on T2 cells)” value worked out at 307 in the assay with HLA-A2.1 on T2 cells [2]; 619 in the assay with HLA-A2.1 on T2 cells [3]; 203 in the assay with HLA-A2.1 on T2 cells [4]; 524 with HLA-A2.1 on T2 cells [5]; 296 with HLA-A2.1 on T2 cells [6]; 724 in the assay with HLA-A2.1 on T2 cells [7].

Regarding YIILGDSPV (Modified CD33 peptide) [YIILGDSPV (SEQ ID NO: 12)], the “binding score (HLA-A2.1 on T2 cells)” value with HLA-A2.1 on T2 cells [2] was found to be 205; with HLA-A2.1 on T2 cells [3], 465; in the assay with HLA-A2.1 on T2 cells [4] it was 173; with HLA-A2.1 on T2 cells [5], 315; with HLA-A2.1 on T2 cells [6], 323; in the assay with HLA-A2.1 on T2 cells [7], 488.

Consider YIIIGDSPV (Modified CD33 peptide) [YIIIGDSPV (SEQ ID NO: 11)], for which the “binding score (HLA-A2.1 on T2 cells)” value with HLA-A2.1 on T2 cells [2] came to 208; with HLA-A2.1 on T2 cells [3], 263; with HLA-A2.1 on T2 cells [4] it was 172; with HLA-A2.1 on T2 cells [5], 257; with HLA-A2.1 on T2 cells [6], 325; with HLA-A2.1 on T2 cells [7], 301.

For the molecule YIISGISPV (Modified CD33 peptide) [YIISGISPV (SEQ ID NO: 6)], the “binding score (HLA-A2.1 on T2 cells)” value in the assay with HLA-A2.1 on T2 cells [2] was found to be 839; in the assay with HLA-A2.1 on T2 cells [3], 591; in the assay with HLA-A2.1 on T2 cells [4], 680; with HLA-A2.1 on T2 cells [5], 929; with HLA-A2.1 on T2 cells [6] it was 593; in the assay with HLA-A2.1 on T2 cells [7], 840.

ALISGDSPV (Modified CD33 peptide) [ALISGDSPV (SEQ ID NO: 16)]: the “binding score (HLA-A2.1 on T2 cells)” value with HLA-A2.1 on T2 cells [2] came to 692; with HLA-A2.1 on T2 cells [3] it was 603; in the assay with HLA-A2.1 on T2 cells [4] it was 609; with HLA-A2.1 on T2 cells [5], 882; in the assay with HLA-A2.1 on T2 cells [6], 366; with HLA-A2.1 on T2 cells [7], 677.

Values taken from patent publication US7527793 (RUSH UNIVERSITY MEDICAL CENTER, dated 2009).
